Test results reported in patent publication JP2024051908A (dated 2024).

How the values were obtained:
Test in all cases: cell-based or functional assay
[1] = biological target: SARS-CoV-2 オミクロンBA.1.1変異株のスパイクタンパク質 (authentic virus) (SARS-CoV-2 Omicron BA.1.1)
[2] = biological target: SARS-CoV-2 オミクロンBA.1変異株のスパイクタンパク質 (authentic virus) (SARS-CoV-2 Omicron BA.1)
[3] = biological target: SARS-CoV-2 D614G変異株のスパイクタンパク質 (authentic virus) (SARS-CoV-2 D614G, UniProt P0DTC2 14-1273)
[4] = biological target: SARS-CoV-2 オミクロンBA.5変異株のスパイクタンパク質 (authentic virus) (SARS-CoV-2 Omicron BA.5)
[5] = biological target: SARS-CoV-2 Delta変異株のスパイクタンパク質 (authentic virus) (SARS-CoV-2 Delta)
[6] = biological target: SARS-CoV-2 オミクロンBA.2変異株のスパイクタンパク質 (authentic virus) (SARS-CoV-2 Omicron BA.2)

B1: MO1 (antibody, V domains shown)
VH: EVQLVESGGGMVQPGRSLRLSCAASGFTFDDYAMHWVRQIPGKGLEWVSGISWNSGDIGYADSVKGRFTISRDNAKNSLHLQMNSLRAEDTALYYCAKDKTYDSPGYFLNSFDYWGQGTLVTVSS
VL: DIQMTQSPSSLSASVGDRVTITCRASQGISSYLVWYQQKPGKAPKFLIYAASTLQSGVPSRFSGSGSGTDFTLTISSLQPEDFATYYCQQLYSYPITFGQGTRLEIK
For B1, the “IC50, プラーク減少中和試験 (PRNT)” value [1] was 0.0106 µg/mL, the “IC50, プラーク減少中和試験 (PRNT)” value [2] was 0.004 µg/mL and the “IC50, プラーク減少中和試験 (PRNT)” value [3] was 0.0236 µg/mL. The “IC50, プラーク減少中和試験 (PRNT)” value [4] was 0.0157 µg/mL, the “IC50, プラーク減少中和試験 (PRNT)” value [5] was 0.0158 µg/mL and the “IC50, プラーク減少中和試験 (PRNT)” value [6] was 0.0203 µg/mL.

B2: MO2 (antibody, V domains shown)
VH: EVQLVESGGGLVKPGGSLSLSCVASGFTFSDYRMSWIRQAPGKGLEWVSYISSSSGYKDYADSVKGRFTISRDNAKNSLSLQMNSLRVEDTAVYYCARDVGVVTATPGYWGQGVPVSVSS
VL: DIVMTQSPATLSVSPGERATLSCRASQSVGSNLAWYQQKPGQAPRLLIYDTSTRATGVPARFSGSGSGTDFTLTISSLQSEDFAVYLCHQYDQWPPAFGPGTRVDIK
In the case of B2, the “IC50, プラーク減少中和試験 (PRNT)” value [1] is reported as 0.036 µg/mL, the “IC50, プラーク減少中和試験 (PRNT)” value [2] is reported as 0.0177 µg/mL and the “IC50, プラーク減少中和試験 (PRNT)” value [3] is reported as 0.0658 µg/mL. For the same binder, the “IC50, プラーク減少中和試験 (PRNT)” value [5] was 0.0882 µg/mL and the “IC50, プラーク減少中和試験 (PRNT)” value [6] was 0.151 µg/mL.
